Target: T1, GST-TUD1 (Oryza sativa subsp. japonica (Rice), UniProt Q10PI9)
T1 chain: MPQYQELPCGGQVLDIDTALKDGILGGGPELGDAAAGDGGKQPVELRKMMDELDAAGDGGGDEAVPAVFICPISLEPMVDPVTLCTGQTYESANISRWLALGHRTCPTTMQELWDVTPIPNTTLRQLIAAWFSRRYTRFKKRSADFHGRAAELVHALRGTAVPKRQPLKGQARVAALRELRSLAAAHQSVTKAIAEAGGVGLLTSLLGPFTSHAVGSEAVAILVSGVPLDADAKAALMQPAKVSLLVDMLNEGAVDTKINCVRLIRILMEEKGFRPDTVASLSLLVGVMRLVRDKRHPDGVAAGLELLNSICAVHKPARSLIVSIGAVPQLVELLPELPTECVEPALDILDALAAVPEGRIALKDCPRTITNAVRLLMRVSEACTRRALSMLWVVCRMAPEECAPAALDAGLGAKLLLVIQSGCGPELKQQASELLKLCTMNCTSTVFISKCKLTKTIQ
Assay: GST pull-down

B1: D1-tagged His (purified D1 fusion protein) (protein)
chain: MGSSCSRSHSLSEAETTKNAKSADIDRRILQETKAEQHIHKLLLLGAGESGKSTIFKQIKLLFQTGFDEAELRSYTSVIHANVYQTIKILYEGAKELSQVESDSSKYVISPDNQEIGEKLSDIDGRLDYPLLNKELVLDVKRLWQDPAIQETYLRGSILQLPDCAQYFMENLDRLAEAGYVPTKEDVLYARVRTNGVVQIQFSPVGENKRGGEVYRLYDVGGQRNERRKWIHLFEGVNAVIFCAAISEYDQMLFEDETKNRMMETKELFDWVLKQRCFEKTSFILFLNKFDIFEKKIQKVPLSVCEWFKDYQPIAPGKQEVEHAYEFVKKKFEELYFQSSKPDRVDRVFKIYRTTALDQKLVKKTFKLIDESMRRSREGT
  binding result: binds

Source: article PMC3597501 (2013)
